In patent US20240166738A1 (Alector, published 2024):
Numbering of substitutions follows the chain as printed.

B1: TM-83 (antibody, V domains shown)
VH: QVQLQQPGTELVKPGALVKLSCKASGYTFTTYWIHWVKQRPGQGLEWIGNINPSNGNTKNNERFKTKATLTVDKSSSTAYMQLSSLTSEDSAVYYCVRGDYYGTSYPFWGQGTLVTVSS
VL: DVVMTQTPLSLPVSLGDQASISCRSSQSLVHSNGITYLHWYLQKPGQSPKLLIYKVSNRFSGVPDRFSGSGSGTDFTLKISRVEAEDLGVYFCSQSTHVPYTFGGGTKLEIK
B2: TM-39 (antibody, V domains shown)
VH: HVQRQQSGTELAKPGASVKLSCKTSGYTFTDYWMHWIKQRPGQGLEWIGFINPSSGYTKYNQNFKDKATLTADKSSSTAYMQLSSLTYEDSAVFYCAREAGSISDWYFDVWGTGTTVTVSS
VL: DIVMTQAAPSIPVTPGESVSISCRSSKTLLNSNGNTYLYWFLQRPGQPPQLLIYRMSNLASGVPDRFSGSGSGTAFTLRISRVEAEDVGVYYCMQHLDYPYTFGGGTQLEIK
B3: TM-34 (antibody, V domains shown)
VH: EVQLVESGGGLVKPGGSLKLSCAASGFSFSDSGMDWVRQAPEKGLEWFAYISSGSSTTHYADTVKGRFIISRDNAKNTLFLQMTSLRSEDTAMYYCVRRDGNYWYFDVWGTGTTVTVSS
VL: QIVLSQSPVILSASPGEKVTMTCRATSSVTYMHWYQLKPGSSPKPWIYATSNLASGVPARFSGSGSGTSYSLTISRVEAEDAATYYCQQWSSNPYTFGGGTKLEIK
B4: TM-3 (antibody, V domains shown)
VH: QVTLKESGPGIVQPSQTLSLTCSFSGFSLNTLGRGVGWIRQPSGKGLEWLAKIWWNDDKFYYPALKSRLTISKDTSKNQIFLKIANVDTADSATYYCARIAGGTGAAYWGQGTTLTVSS
VL: DIVMTQAAFSNPVTLGTSASISCRSSKSLLHSNGITYLYWYLQKPGQSPQLLISQMSSLASGVPDRFSSGGSGTDFTLRISRVEAEDVGVFYCAQNLELPWTFGGGTKLELK
B5: TM-50 (antibody, V domains shown)
VH: QVQLKESGPVLVAPSQSLSITCTVSGFSLTNYGVHWVRQPPGKGLEWLGVIWAGGNTNYNSALMSRLSISKDNSKSQVFLKMNSLQTDDTAMYYCAKEAKLLRSYAMDYWGQGTLVTVSA
VL: DVQMTQTTSSLSASLGDRVTISCRASQDINNYLYWYQQKPDGTVKLLIYYTSMLHSGVPSRFSGSGSGTDYSLTISNLEQEDIATYFCQQGSTLMYTFGGGTKLEIK
B6: TM-47 (antibody, V domains shown)
VH: B5 VH with L115S, A120S
VL: DIVMTQSPSSLTVTAGEKVTMSCKSSQSLLNSGNQKNYLTWYQQKPGQPPKLLIYWASTRESGVPDRFTGSGSGTDFTLTISSVQAEDLAVYYCQNDYSYPLTFGAGTKLEIK
B7: TM-4 (antibody, V domains shown)
VH: EVQVQQSGPVLVKPGASVKMSCKASGYTFTDYYMNWVKQSHGKNLEWIGVINPYNGGTSYHQKFKGKATLTVDKSSSTAYMELNSLTSEDSAVYYCARAATVVAGFDYWGQGTTLTVSS
VL: QAVVTQESALTTSPGETVTLTCRSSTGAVTTSNYANWVQEKPDHLFTGLIGGTNNRAPGVPARFSGSLIGDKAALTITGAQTEDEAIYFCVLWYSNHLVFGGGTKLTVL
B8: TM-17 (antibody, V domains shown)
VH: QVQLQQSGAELIRPGTSVKVSCKASGYAFTDYLIEWVKQRPGQGLEWIGVINPGSGGTNYNEKFKGKAKLTADKSSSTAYMQLSSLTSEDSAVYFCVRSSYGVYVAYPMDYWGQGTSVTVSS
VL: DIQMTQSPSSLSASLGERVSLTCRASQDIGSNLNWLQQEPDGTIKRLIYATSSLDSGVPKRFSGSRSGSDYSLTISSLESEDFVDYYCLQYASSPRTFGGGTKLEIK
B9: TM-23 (antibody, V domains shown)
VH: QVQLQQSGAELIRPGTSVKVSCKASGYAFTNYLIEWVKKRPGQGLEWIGVINPGSGITNYNEKFKGKATLTADKSSSTAYMQLSSLTSEDSAVYFCARSDFITTVVADYWGQGTTVTVSS
VL: DIVVTQTPLSLPVSFGDQVSISCRSSQSLTNYYGNTYLSWYLHKPGQSPQLLIYGISNRFSGVPDRFSGSGSGTDFTLKISTIKPEDLGMYYCLQGTHQPRTFGGGTKLEIK
B10: TM-74 (antibody, V domains shown)
VH: EVQLQQSGPELVKPGASVKMSCKASGYTFTSYVIHWVKQKPGQGLEWIGFINPNNDGTKYNEKFRGKATLTSDKSSSTAYMELSSLTSEDSAVYYCARPYYDYEGYTMDYGGQGTSVTVSS
VL: DVVMTQSQKFMSTSVEDRVSITCKASQNVRSAVAWYQQKPGQSPKALIYLASNRHTGVPDRFAGSGSGTDFTLTISSVQSEDLADYFCLQHWKYPFTFGSGTKLEIK
B11: TM-9 (antibody, V domains shown)
VH: EVQLVESGGDLVKPGGSLKLSCVASGFTFSGYGMSWVRQTPDKRLEWVATISSGSFYIYYPDSVKGRLTVSRDNAKNTLYLQMSSLKSEDTAIYYCARQNFYYGCEDYWGQGTTLTVSS
VL: B4 VL with S54Y, S58N, D65N, G70S, F91Y, L111I
B12: TM-41 (antibody, V domains shown)
VH: EVQLQQSGAELVKPGASIKLSCTASGFNIKDCYMHWVKQRTEQGLEWIGRIDPEDGTTNFAPKFQDRATITADTSSNTAYLQLTSLTSEDTAVYYCAREWDSGAYWGQGTLVTVSA
VL: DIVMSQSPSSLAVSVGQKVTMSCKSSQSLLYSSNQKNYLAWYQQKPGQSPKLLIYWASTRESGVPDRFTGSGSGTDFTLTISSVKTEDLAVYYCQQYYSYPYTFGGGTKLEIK
B13: TM-68 (antibody, V domains shown)
VH: EVQLQQSGAELVRPGASVKLSCTASGFNIKDDYMHWVRQRPEQGLEWIGWIDPENGDTEYASKFQGKATMTADTSSNTAYLHLSSLTSEDTAVYYCTKPQTATTCWGQGTLVTVSS
VL: DIVMTQAAFSNPVTLGTSVSISCSSSKSLLHSSGITYLYWYLQRPGQSPQLLIYRMSNLASGVPDRFSGSGSGTDFTLRISRVEAEDVGVYYCAQMLERPWTFGGGTKLEIK
B14: TM-70 (antibody, V domains shown)
VH: EVQLVESGGALVKPGGSLKLSCAASGFTFSNYAMSWVRQTPEKRLEWVATIGYGGSYSYYPDSVKGRFTISRDNAKYTLYLQMSGLRSEDTALYYCARQDSNYEGVWFAYWGQGTLVT
VL: not shown
B15: TM-44 (antibody, V domains shown)
VH: EVQLVESGGGLVKPGGSLKLSCAASGFTFSDYGMHWVRQAPEKGLEWVAYISSGSSTIYYADTVKGRFTISRDNAKNTLFLQMTSLRSEDTAMYYCARNYGSPYAMDYWGQGTSVTVSS
VL: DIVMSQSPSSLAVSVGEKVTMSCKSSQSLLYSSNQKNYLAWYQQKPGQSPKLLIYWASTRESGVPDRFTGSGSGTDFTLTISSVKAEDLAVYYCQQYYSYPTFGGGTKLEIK
B16: TM-82 (antibody, V domains shown)
VH: B9 VH with I12V, K19R, V37I, K39Q, N59D, N61S, T69R, E89D, A97T, D100P
VL: B9 VL with I2V, T30A, Y32T, K44T, Y54F, M90V, Q99P, I111M
B17: TM-12 (antibody, V domains shown)
VH: EVQLQQSGAELMRPGASVKLSCTASGFNIQDYYMYWVKQRPEQGLEWIGRIDPEDGDAEYAPKFQGKATMTADTSSNTAYLQLSSLTSEDTAVYYCSTRVIYDGYYRTMDCWGQGTSVTVSS
VL: DVLMTQIPLSLPVSLGDQASISCRSSQTIVHSNGNTYLEWYLKKPGQSPKLLIDKISNRFSGVPDRFSGSGSGTDFTLKISRVEAEDLGVYYCFQGSHVPYTFGGGTKLEIK

What follows are binders tested against human TMEM106B (human, UniProt Q9NUM4 2-274) (assay: cell-based or functional assay).
Also: test concentration or dose not given here.

Binder	% Protection from CPE [%]
B1	4.3
B2	4.2
B3	4.1
B4	97.2
B5	3.9
B6	3.8
B7	3.7
B8	3.7
B9	3.7
B10	3.7
B11	96.4
B12	3.5
B13	3.5
B14	3.4
B15	3.2
B16	3.2
B17	95.9
